According to patent publication US20240254238A1 (OXFORD BIOTHERAPEUTICS, published 2024):

Molecular target: human CD205 (human, UniProt O60449 28-1722)
Experiment: cell-based or functional assay

Chain of human CD205 (O60449 28-1722 limits assumed): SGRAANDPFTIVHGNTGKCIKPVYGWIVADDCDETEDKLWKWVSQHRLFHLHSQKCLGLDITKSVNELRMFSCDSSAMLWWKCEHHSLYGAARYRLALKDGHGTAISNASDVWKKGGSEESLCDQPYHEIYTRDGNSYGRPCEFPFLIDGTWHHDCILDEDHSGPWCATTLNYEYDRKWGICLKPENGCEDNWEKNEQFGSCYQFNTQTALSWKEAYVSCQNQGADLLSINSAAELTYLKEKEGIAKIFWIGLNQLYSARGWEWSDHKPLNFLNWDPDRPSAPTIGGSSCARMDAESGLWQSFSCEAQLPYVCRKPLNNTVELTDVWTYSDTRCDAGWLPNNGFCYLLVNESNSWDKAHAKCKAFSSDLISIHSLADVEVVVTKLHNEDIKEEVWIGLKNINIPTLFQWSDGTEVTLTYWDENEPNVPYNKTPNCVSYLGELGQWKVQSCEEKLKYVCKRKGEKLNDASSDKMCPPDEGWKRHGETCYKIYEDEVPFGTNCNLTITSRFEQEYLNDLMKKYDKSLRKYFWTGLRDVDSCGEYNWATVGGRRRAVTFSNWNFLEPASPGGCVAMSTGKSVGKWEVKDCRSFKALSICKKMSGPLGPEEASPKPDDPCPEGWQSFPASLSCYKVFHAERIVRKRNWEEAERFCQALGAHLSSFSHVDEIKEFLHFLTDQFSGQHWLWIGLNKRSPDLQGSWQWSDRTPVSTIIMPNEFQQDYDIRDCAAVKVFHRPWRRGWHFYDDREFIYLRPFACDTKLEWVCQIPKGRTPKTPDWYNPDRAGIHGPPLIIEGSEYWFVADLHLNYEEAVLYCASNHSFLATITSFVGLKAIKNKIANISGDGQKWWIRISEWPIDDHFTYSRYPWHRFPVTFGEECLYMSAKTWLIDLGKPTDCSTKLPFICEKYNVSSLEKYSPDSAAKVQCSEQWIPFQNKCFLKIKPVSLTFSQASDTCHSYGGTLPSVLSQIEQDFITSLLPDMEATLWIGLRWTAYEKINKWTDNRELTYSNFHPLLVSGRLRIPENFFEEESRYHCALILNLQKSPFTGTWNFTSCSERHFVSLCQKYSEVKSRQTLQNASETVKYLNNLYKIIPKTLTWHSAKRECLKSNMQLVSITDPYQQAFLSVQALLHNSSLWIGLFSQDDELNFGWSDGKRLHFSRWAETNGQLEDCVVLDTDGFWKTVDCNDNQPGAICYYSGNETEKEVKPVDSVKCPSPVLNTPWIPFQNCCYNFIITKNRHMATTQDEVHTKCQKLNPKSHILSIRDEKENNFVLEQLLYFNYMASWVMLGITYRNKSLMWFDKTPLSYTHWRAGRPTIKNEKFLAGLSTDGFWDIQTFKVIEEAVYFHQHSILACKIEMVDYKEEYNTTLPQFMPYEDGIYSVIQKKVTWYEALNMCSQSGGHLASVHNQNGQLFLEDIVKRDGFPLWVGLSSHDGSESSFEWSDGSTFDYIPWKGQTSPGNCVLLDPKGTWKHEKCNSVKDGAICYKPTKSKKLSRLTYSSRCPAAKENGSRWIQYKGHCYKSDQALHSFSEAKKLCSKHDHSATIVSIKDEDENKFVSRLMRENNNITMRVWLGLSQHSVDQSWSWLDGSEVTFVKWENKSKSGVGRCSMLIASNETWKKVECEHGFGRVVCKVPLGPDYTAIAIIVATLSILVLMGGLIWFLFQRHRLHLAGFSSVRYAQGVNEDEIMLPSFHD

Row | Binder | EC50 (pM) of % Specific Death, Cell-Titer Glo, Raji cells, 96 hours | EC50 (pM) of % Specific Death, Cell-Titer Glo, THP1 cells, 96 hours
1 | DM4-conjugated anti-LY75 monoclonal antibody 8A3 (antibody, V domains shown, antibody conjugated to the maytansinoid DM4; attachment residues not stated) VH: EVQLVESGGGLIQPGGSLRLSCAASGFTVSSNYMSWVRQAPGKGLEWVSVIYSGGSTYYTDSVKGRFTISRDNSKNTLYLQMNSLRAEDTAVYYCARDKSGWNGFDYWGQGTLVTVSS VL: DVQMTQSPSSLSASVGDRVTITCRASQSVSTYLHWYQQKPGKAPKLLIYAASSLQGGLPSRFSGSGSGTDFTLTISSLQPEDFATYYCQQSSSTPLTFGGGTKVEITR | 1010 pM | 98.8 pM
2 | DM4-conjugated anti-LY75 monoclonal antibody 16A5 (CD205_A1) (antibody, V domains shown, antibody conjugated to the maytansinoid DM4; attachment residues not stated) VH: EVQLVESGGGLVKPGGSLRLSCAASGFTYSNAWMSWVRQAPGKGLEWVGRIKSKTDGGTTDYAAPVQGRFTISRDDSKNTLYLQMNSLKTEDTAVYYCTIFGVVSFDYWGQGTLVTVSS VL: DVQMTQSPSSLSASVGDRVTITCRASQSISDYLSWYQQRPGKAPNLLIYAASNLKTGVPSRFSGSGSGTDFTLTISTLQPEDFATYYCQQSYRSPWTFGQGTKVEIKR | 728 pM | 37.5 pM
